# Results as given in patent US20030232760A1, “Conjugates useful in the treatment of prostate cancer” (priority 2001, published 2003).
# Where a SMILES comes first, the peptide text is derived from it. Primed or numbered codes have the meaning given here. [ ]: non-standard residue; d: D form. The star is where a group is joined. ξ: configuration not given here. Doxorubicin(3'-N) = COc1cccc2c1C(=O)c1c(O)c3c(c(O)c1C2=O)C[C@@](O)(C(=O)CO)C[C@@H]3O[C@H]1C[C@H](N*)[C@H](O)[C@H](C)O1; PEG(2) = polyethylene glycol-containing substituent with two ethyleneoxy subunits; Hyp = O=C(O)[C@@H]1C[C@@H](O)CN1; ξtBuAla = CC(C)(C)CC(N)C(=O)O; Chg = N[C@H](C(=O)O)C1CCCCC1; ξHyp = O=C(O)C1CC(O)CN1
# Columns and labels:
# [1] = test system: LNCap prostate tumor cells (which express enzymatically active PSA); test: In vitro cytotoxicity of peptidyl derivatives of doxorubicin, Alamar Blue assay, LNCaP; type: cell-based; conditions: 72 HRS, read-out: LNCaP Cell Kill in 72 HRS EC 50
# Description: (§1) The cytotoxicities of the cleaveable oligopeptide-doxorubicin conjugates, prepared as described in Examples 3 and 4, against a line of cells which is known to be killed by unmodified doxorubicin were assessed with an Alamar Blue assay. Specifically, cell cultures of LNCap prostate tumor cells (which express enzymatically active PSA) or DuPRO cells in 96 well plates was diluted with medium (Dulbeco's Minimum Essential Medium-α [MEM-α]) containing various concentrations of a given conjugate (final plate well volume of 200 μl). The cells were incubated for 3 days at 37° C., 20 μl of Alamar Blue is added to the assay well. The cells were further incubated and the assay plates were read on a EL-310 ELISA reader at the dual wavelengths of 570 and 600 nm at 4 and 7 hours after addition of Alamar Blue. Relative percentage viability at the various concentration of conjugate tested was then calculated versus control (no conjugate) cultures. If no salt is indicated, the free conjugate was tested.
# DuPRO cells = test: In vitro cytotoxicity of peptidyl derivatives of doxorubicin, Alamar Blue assay, DuPRO; type: cell-based; conditions: 72 HRS, read-out: DuPRO Cell Kill in 72 HRS EC 50
# Description: as §1
# [2] = target: T1, enzymatically active free PSA (Homo sapiens, UniProt P07288); test: Recognition of oligopeptide-doxorubicin conjugates by free PSA (HPLC cleavage assay); type: biochemical; conditions: for Time to 50% Substrate Cleavage by PSA: conjugate added to PSA at molar ratio 100 to 1, PSA digestion buffer
# T1 construct: required for 50% cleavage of the noted oligopeptides with enzymatically active free PSA
# Description: The conjugates prepared as described in Examples 3-5 were individually dissolved in PSA digestion buffer (12 mM tris(hydroxymethyl)-aminomethane pH8.0, 25 mM NaCl, 0.5 mm CaCl2) and the solution added to PSA at a molar ration of 100 to 1. Alternatively, the PSA digestion buffer utilized is 50 mM tris(hydroxymethyl)-aminomethane pH7.4, 140 mM NaCl. The reaction is quenched after various reaction times by the addition of trifluoroacetic acid (TFA) to a final 1% (volume/volume). Alternatively the reaction is quenched with 10 mm ZnCl2. The quenched reaction was analyzed by HPLC on a reversed-phase C18 column using an aqueous 0.1% TFA/acetonitrile gradient. […] If no salt is indicated for the conjugate, the free conjugate was tested. The oligopeptide-cytotoxic agent conjugates described in Examples 4 and 5 were assessed for the amount of time (in minutes) required for 50% cleavage of the oligopeptide with enzymatically active free PSA and 50% cleavage occurred in less than 2 hours for those conjugates.
# [3] = target: T1, enzymatically active free PSA; test: Recognition of oligopeptides by free PSA (HPLC cleavage assay); type: biochemical; conditions: for Substrate cleavage by PSA at 3 HOURS: oligopeptide added to PSA at molar ratio 100 to 1; for Time to 50% Substrate Cleavage by PSA: oligopeptide added to PSA at molar ratio 100 to 1, PSA digestion buffer
# Description: The oligopeptides prepared as described in Example 1 were individually dissolved in PSA digestion buffer (12 mM tris(hydroxymethyl)-aminomethane pH8.0, 25 mM NaCl, 0.5 mM CaCl2) and the solution added to PSA at a molar ration of 100 to 1. Alternatively, the PSA digestion buffer utilized is 50 mM tris(hydroxymethyl)-aminomethane pH7.4, 140 mM NaCl. The reaction is quenched after various reaction times by the addition of trifluoroacetic acid (TFA) to a final 1% (volume/volume). Alternatively the reaction is quenched with 10 mM ZnCl2. The quenched reaction was analyzed by HPLC on a reversed-phased C18 column using an aqueous 0.1% TFA/acetonitrile gradient. […] Oligopeptides containing free amine moieties (ie. comprising hArg, Orn, Lys and or 3PAL) were tested as TFA salts. All other oligopeptides were tested as neutral compounds.
# T1 sequence (P07288 25-261): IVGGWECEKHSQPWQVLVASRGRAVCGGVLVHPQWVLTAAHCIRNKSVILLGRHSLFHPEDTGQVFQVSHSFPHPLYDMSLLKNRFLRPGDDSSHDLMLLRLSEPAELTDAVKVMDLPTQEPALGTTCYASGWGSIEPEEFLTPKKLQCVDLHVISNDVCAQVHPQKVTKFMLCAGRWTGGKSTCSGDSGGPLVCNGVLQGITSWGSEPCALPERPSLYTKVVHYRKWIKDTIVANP
molecule,measurement,setting,value
COc1cccc2c1C(=O)c1c(O)c3c(c(O)c1C2=O)C[C@@](O)(C(=O)CO)C[C@@H]3O[C@H]1C[C@H](NC(=O)C(CC(C)(C)C)NC(=O)[C@H](CO)NC(=O)[C@H](CCC(N)=O)NC(=O)[C@@H](NC(=O)[C@H](CO)NC(=O)[C@H](C)NC(=O)C2CC(O)CN2C(C)=O)C2CCCCC2)[C@H](O)[C@H](C)O1 (stereo partly shown) (Ac-[ξHyp]AS[Chg]QS[ξtBuAla]-{Doxorubicin(3'-N)}),EC50,[1],100 µM
same,EC50,DuPRO cells,> 100 µM
same,Time to 50% Substrate Cleavage by PSA,[2],25 min
"COc1cccc2c1C(=O)c1c(O)c3c(c(O)c1C2=O)C[C@@](O)(C(=O)CO)C[C@@H]3O[C@H]1C[C@H](NC(=O)[C@H](CC(C)C)NC(=O)[C@H](CO)NC(=O)[C@H](CCC(N)=O)NC(=O)[C@@H](NC(=O)[C@H](CO)NC(=O)[C@H](C)NC(=O)[C@@H]2C[C@@H](O)CN2C(C)=O)C2CCCCC2)[C@H](O)[C@H](C)O1 [Ac-(4-trans-L-Hyp)ASChgQ-SL-DOX (3′), [N-Ac-(4-trans-L-Hyp)]-Ala-Ser-Chg-Gln-Ser-Leu-Dox] (Ac-[Hyp]AS[Chg]QSL-{Doxorubicin(3'-N)})",EC50,[1],4.5 µM
same,EC50,DuPRO cells,90 µM
same,Time to 50% Substrate Cleavage by PSA,[2],20 min
Ac-(4-trans-L-Hyp)ASChgQ-SThi-DOX (3′),Solubility noted in the column Time to 50% Substrate Cleavage by PSA,[2],INSOLUBLE
Ac-(4-trans-L-Hyp)ChgQ-SSSL-acid,Substrate cleavage by PSA at 3 HOURS,[3],3 HOURS = 0% n = 2
Ac-(Dehydro-Pro)-ASChgQ-SL-acid,Substrate cleavage by PSA at 3 HOURS,[3],3 HOURS = 28%
Ac-PASChgQ-SL-acid (Ac-PAS[Chg]QSL-OH),Time to 50% Substrate Cleavage by PSA,[3],150 min
Ac-PSSChgQ-SV-acid,Time to 50% Substrate Cleavage by PSA,[3],120 min
PEG(2)-(4-trans-L-Hyp)ASChgQ-SL-acid ({PEG(2)}-[Hyp]AS[Chg]QSL-OH),Substrate cleavage by PSA at 3 HOURS,[3],3 HOURS = 44%
[N-Ac-(4-trans-L-Hyp)]-Ala-Ser-Chg-Gln-Ser-Leu-OH (Ac-[Hyp]AS[Chg]QSL-OH) [Ac-(4-trans-L-Hyp)ASChgQ-SL-acid],Time to 50% Substrate Cleavage by PSA,[3],75 min
